In patent US20250339569A1 (3B PHARMACEUTICALS, published 2025):
Starred links: 1 amine or outer side, 2 acyl side, 3 side chain; linkers in the order of their positions; H or OH if unused. Positions of bridges follow the written chain, without caps; N, C: chain ends. Non-standard residues stand in square brackets, D forms with d. Groups on a side chain read outwards from the residue. Primed or numbered codes have the meaning given here. *: point of attachment. APAc″ = 2-(4-(amino)piperidin-1-yl)acetic acid, NC1CCN(CC(=O)*)CC1; DOTA = O=C(O)CN1CCN(CC(=O)O)CCN(CC(=O)*)CCN(CC(=O)O)CC1; Ttds(3) = NCCCOCCOCCOCCCNC(=O)CCC(=O)*; mXylylene = c1cc(C[*:1])cc(C[*:2])c1; 3Amb = NCc1cccc(C(=O)O)c1; dNMeA = CN[C@H](C)C(=O)O; 4Amc = not defined here; AEEA = NCCOCCOCC(=O)O; Ttds″ = Ttds spacer; Sar = CNCC(=O)O

Molecular target: human carbonic anhydrase 9 (CAIX) (human, UniProt Q16790 38-459)
Assay: FACS competition on HT-29 cells against tracer 3BP-2776; pIC50 category A = pIC50 >8.0
Experimental: CAIX-expressing human HT-29 colorectal cancer cells (DSMZ, RRID: CVCL_0320) were cultured in McCoys's 5A modified medium (Biochrom, #F1015) including 10% fetal calf serum (FCS), 2 mM L-glutamine, 100 U/ml penicillin and 100 μg/mL streptomycin. Cells were detached with Accutase (Biolegend, #423201) and washed in FACS buffer (PBS including 1% FCS). Cells were diluted in FACS buffer to a final concentration of 500.000 cells per ml. 200 μL of the cell suspension were transferred to a u-shaped non-binding 96-well plate (Greiner) and cells were washed in ice-cold FACS buffer.
When biotinylated compounds were used an additional incubation step with 1 μg/mL APC-Streptavidin (Miltenyi; #130-106-791) in 50 μL FACS buffer for 30 minutes on ice was performed.
Cells were washed twice with ice-cold FACS buffer and analyzed in an Attune NxT flow cytometer (Thermo Fisher). Median fluorescence intensities (MFI) of the APC/Cy5-channel were calculated by Attune NxT software.

pIC50	Binder
> 8 pic50	Ac-VYCEGDWLTWQC-NH2 (linker 3-12 via mXylylene; SMILES CC(=O)N[C@H](C(=O)N[C@@H](Cc1ccc(O)cc1)C(=O)N[C@H]1CSCc2cccc(c2)CSC[C@@H](C(N)=O)NC(=O)[C@H](CCC(N)=O)NC(=O)[C@H](Cc2c[nH]c3ccccc23)NC(=O)[C@H]([C@@H](C)O)NC(=O)[C@H](CC(C)C)NC(=O)[C@H](Cc2c[nH]c3ccccc23)NC(=O)[C@H](CC(=O)O)NC(=O)CNC(=O)[C@H](CCC(=O)O)NC1=O)C(C)C) [3BP-2837]
> 8 pic50	Ac-VYCE[Sar]DWLGWQC-NH2 (linker 3-12 via mXylylene; SMILES CC(=O)N[C@H](C(=O)N[C@@H](Cc1ccc(O)cc1)C(=O)N[C@H]1CSCc2cccc(c2)CSC[C@@H](C(N)=O)NC(=O)[C@H](CCC(N)=O)NC(=O)[C@H](Cc2c[nH]c3ccccc23)NC(=O)CNC(=O)[C@H](CC(C)C)NC(=O)[C@H](Cc2c[nH]c3ccccc23)NC(=O)[C@H](CC(=O)O)NC(=O)CN(C)C(=O)[C@H](CCC(=O)O)NC1=O)C(C)C, also called Ac-Val-Tyr-[Cys(3MeBn)-Glu-Nmg-Asp-Trp-Leu-Gly-Trp-Gln-Cys]-NH2) [3BP-3307]
> 8 pic50	{DOTA-Ttds(3)}-VYCE[dA]DWLTWQC-NH2 (linker 3-12 via mXylylene, also called DOTA-Ttds-Val-Tyr-[Cys(3MeBn)-Glu-ala-Asp-Trp-Leu-Thr-Trp-Gln-Cys]-NH2) [3BP-3270]
> 8 pic50	Ac-VYCE[dA]DWLTWGC-NH2 (linker 3-12 via mXylylene; SMILES CC(=O)N[C@H](C(=O)N[C@@H](Cc1ccc(O)cc1)C(=O)N[C@H]1CSCc2cccc(c2)CSC[C@@H](C(N)=O)NC(=O)CNC(=O)[C@H](Cc2c[nH]c3ccccc23)NC(=O)[C@H]([C@@H](C)O)NC(=O)[C@H](CC(C)C)NC(=O)[C@H](Cc2c[nH]c3ccccc23)NC(=O)[C@H](CC(=O)O)NC(=O)[C@@H](C)NC(=O)[C@H](CCC(=O)O)NC1=O)C(C)C, also called Ac-Val-Tyr-[Cys(3MeBn)-Glu-ala-Asp-Trp-Leu-Thr-Trp-Gly-Cys]-NH2) [3BP-3284]
> 8 pic50	Ac-VYCEGDWLTWAC-NH2 (linker 3-12 via mXylylene; SMILES CC(=O)N[C@H](C(=O)N[C@@H](Cc1ccc(O)cc1)C(=O)N[C@H]1CSCc2cccc(c2)CSC[C@@H](C(N)=O)NC(=O)[C@H](C)NC(=O)[C@H](Cc2c[nH]c3ccccc23)NC(=O)[C@H]([C@@H](C)O)NC(=O)[C@H](CC(C)C)NC(=O)[C@H](Cc2c[nH]c3ccccc23)NC(=O)[C@H](CC(=O)O)NC(=O)CNC(=O)[C@H](CCC(=O)O)NC1=O)C(C)C) [3BP-3058]
> 8 pic50	{DOTA-3Amb}-VYCE[dP]DWLTWAC-NH2 (linker 3-12 via mXylylene; SMILES CC(C)C[C@@H]1NC(=O)[C@H](Cc2c[nH]c3ccccc23)NC(=O)[C@H](CC(=O)O)NC(=O)[C@H]2CCCN2C(=O)[C@H](CCC(=O)O)NC(=O)[C@@H](NC(=O)[C@H](Cc2ccc(O)cc2)NC(=O)[C@@H](NC(=O)c2cccc(CNC(=O)CN3CCN(CC(=O)O)CCN(CC(=O)O)CCN(CC(=O)O)CC3)c2)C(C)C)CSCc2cccc(c2)CSC[C@@H](C(N)=O)NC(=O)[C@H](C)NC(=O)[C@H](Cc2c[nH]c3ccccc23)NC(=O)[C@H]([C@@H](C)O)NC1=O, also called DOTA-Mamb-Val-Tyr-[Cys(3MeBn)-Glu-pro-Asp-Trp-Leu-Thr-Trp-Ala-Cys]-NH2) [3BP-3429]
> 8 pic50	{DOTA-Ttds″}-VYCEGDWLTWAC-NH2 (linker 3-12 via mXylylene; not fully specified) [3BP-3272]
> 8 pic50	Ac-VYCE[dA]DWLTWQC-NH2 (linker 3-12 via mXylylene; SMILES CC(=O)N[C@H](C(=O)N[C@@H](Cc1ccc(O)cc1)C(=O)N[C@H]1CSCc2cccc(c2)CSC[C@@H](C(N)=O)NC(=O)[C@H](CCC(N)=O)NC(=O)[C@H](Cc2c[nH]c3ccccc23)NC(=O)[C@H]([C@@H](C)O)NC(=O)[C@H](CC(C)C)NC(=O)[C@H](Cc2c[nH]c3ccccc23)NC(=O)[C@H](CC(=O)O)NC(=O)[C@@H](C)NC(=O)[C@H](CCC(=O)O)NC1=O)C(C)C, also called Ac-Val-Tyr-[Cys(3MeBn)-Glu-ala-Asp-Trp-Leu-Thr-Trp-Gln-Cys]-NH2) [3BP-3046]
> 8 pic50	Ac-VYCE[dP]DWLTWAC-NH2 (linker 3-12 via mXylylene; SMILES CC(=O)N[C@H](C(=O)N[C@@H](Cc1ccc(O)cc1)C(=O)N[C@H]1CSCc2cccc(c2)CSC[C@@H](C(N)=O)NC(=O)[C@H](C)NC(=O)[C@H](Cc2c[nH]c3ccccc23)NC(=O)[C@H]([C@@H](C)O)NC(=O)[C@H](CC(C)C)NC(=O)[C@H](Cc2c[nH]c3ccccc23)NC(=O)[C@H](CC(=O)O)NC(=O)[C@H]2CCCN2C(=O)[C@H](CCC(=O)O)NC1=O)C(C)C, also called Ac-Val-Tyr-[Cys(3MeBn)-Glu-pro-Asp-Trp-Leu-Thr-Trp-Ala-Cys]-NH2) [3BP-3282]
> 8 pic50	{DOTA-4Amc}-VYCE[dP]DWLTWAC-NH2 (linker 3-12 via mXylylene; reading uncertain, also called DOTA-4Amc-Val-Tyr-[Cys(3MeBn)-Glu-pro-Asp-Trp-Leu-Thr-Trp-Ala-Cys]-NH2) [3BP-3430]
> 8 pic50	{DOTA-APAc″}-VYCE[dP]DWLTWAC-NH2 (linker 3-12 via mXylylene, also called DOTA-APAc-Val-Tyr-[Cys(3MeBn)-Glu-pro-Asp-Trp-Leu-Thr-Trp-Ala-Cys]-NH2) [3BP-3432]
> 8 pic50	Ac-VYCE[Sar]DWLTWAC-NH2 (linker 3-12 via mXylylene; SMILES CC(=O)N[C@H](C(=O)N[C@@H](Cc1ccc(O)cc1)C(=O)N[C@H]1CSCc2cccc(c2)CSC[C@@H](C(N)=O)NC(=O)[C@H](C)NC(=O)[C@H](Cc2c[nH]c3ccccc23)NC(=O)[C@H]([C@@H](C)O)NC(=O)[C@H](CC(C)C)NC(=O)[C@H](Cc2c[nH]c3ccccc23)NC(=O)[C@H](CC(=O)O)NC(=O)CN(C)C(=O)[C@H](CCC(=O)O)NC1=O)C(C)C, also called Ac-Val-Tyr-[Cys(3MeBn)-Glu-Nmg-Asp-Trp-Leu-Thr-Trp-Ala-Cys]-NH2) [3BP-3313]
> 8 pic50	{DOTA-Ttds″}-VYCE[dA]DWLTWAC-NH2 (linker 3-12 via mXylylene; not fully specified, also called DOTA-Ttds-Val-Tyr-[Cys(3MeBn)-Glu-ala-Asp-Trp-Leu-Thr-Trp-Ala-Cys]-NH2) [3BP-3279]
> 8 pic50	Ac-VYCAGDWLTWQC-NH2 (linker 3-12 via mXylylene; SMILES CC(=O)N[C@H](C(=O)N[C@@H](Cc1ccc(O)cc1)C(=O)N[C@H]1CSCc2cccc(c2)CSC[C@@H](C(N)=O)NC(=O)[C@H](CCC(N)=O)NC(=O)[C@H](Cc2c[nH]c3ccccc23)NC(=O)[C@H]([C@@H](C)O)NC(=O)[C@H](CC(C)C)NC(=O)[C@H](Cc2c[nH]c3ccccc23)NC(=O)[C@H](CC(=O)O)NC(=O)CNC(=O)[C@H](C)NC1=O)C(C)C) [3BP-3052]
> 8 pic50	Ac-VYCE[dA]DWLTWAC-NH2 (linker 3-12 via mXylylene; SMILES CC(=O)N[C@H](C(=O)N[C@@H](Cc1ccc(O)cc1)C(=O)N[C@H]1CSCc2cccc(c2)CSC[C@@H](C(N)=O)NC(=O)[C@H](C)NC(=O)[C@H](Cc2c[nH]c3ccccc23)NC(=O)[C@H]([C@@H](C)O)NC(=O)[C@H](CC(C)C)NC(=O)[C@H](Cc2c[nH]c3ccccc23)NC(=O)[C@H](CC(=O)O)NC(=O)[C@@H](C)NC(=O)[C@H](CCC(=O)O)NC1=O)C(C)C, also called Ac-Val-Tyr-[Cys(3MeBn)-Glu-ala-Asp-Trp-Leu-Thr-Trp-Ala-Cys]-NH2) [3BP-3280]
> 8 pic50	Ac-VYCE[Sar]DWLTWGC-NH2 (linker 3-12 via mXylylene; SMILES CC(=O)N[C@H](C(=O)N[C@@H](Cc1ccc(O)cc1)C(=O)N[C@H]1CSCc2cccc(c2)CSC[C@@H](C(N)=O)NC(=O)CNC(=O)[C@H](Cc2c[nH]c3ccccc23)NC(=O)[C@H]([C@@H](C)O)NC(=O)[C@H](CC(C)C)NC(=O)[C@H](Cc2c[nH]c3ccccc23)NC(=O)[C@H](CC(=O)O)NC(=O)CN(C)C(=O)[C@H](CCC(=O)O)NC1=O)C(C)C, also called Ac-Val-Tyr-[Cys(3MeBn)-Glu-Nmg-Asp-Trp-Leu-Thr-Trp-Gly-Cys]-NH2) [3BP-3304]
> 8 pic50	Ac-VYCE[dNMeA]DWLTWAC-NH2 (linker 3-12 via mXylylene; SMILES CC(=O)N[C@H](C(=O)N[C@@H](Cc1ccc(O)cc1)C(=O)N[C@H]1CSCc2cccc(c2)CSC[C@@H](C(N)=O)NC(=O)[C@H](C)NC(=O)[C@H](Cc2c[nH]c3ccccc23)NC(=O)[C@H]([C@@H](C)O)NC(=O)[C@H](CC(C)C)NC(=O)[C@H](Cc2c[nH]c3ccccc23)NC(=O)[C@H](CC(=O)O)NC(=O)[C@@H](C)N(C)C(=O)[C@H](CCC(=O)O)NC1=O)C(C)C, also called Ac-Val-Tyr-[Cys(3MeBn)-Glu-nma-Asp-Trp-Leu-Thr-Trp-Ala-Cys]-NH2) [3BP-3281]
> 8 pic50	Ac-K([AEEA-DOTA])VYCE[dP]DWLTWAC-NH2 (linker 4-13 via mXylylene, also called Ac-Lys(DOTA-O2Oc)-Val-Tyr-[Cys(3MeBn)-Glu-pro-Asp-Trp-Leu-Thr-Trp-Ala-Cys]-NH2) [3BP-3428]
> 8 pic50	Ac-K(DOTA)VYCE[dP]DWLTWAC-NH2 (linker 4-13 via mXylylene; SMILES CC(=O)N[C@@H](CCCCNC(=O)CN1CCN(CC(=O)O)CCN(CC(=O)O)CCN(CC(=O)O)CC1)C(=O)N[C@H](C(=O)N[C@@H](Cc1ccc(O)cc1)C(=O)N[C@H]1CSCc2cccc(c2)CSC[C@@H](C(N)=O)NC(=O)[C@H](C)NC(=O)[C@H](Cc2c[nH]c3ccccc23)NC(=O)[C@H]([C@@H](C)O)NC(=O)[C@H](CC(C)C)NC(=O)[C@H](Cc2c[nH]c3ccccc23)NC(=O)[C@H](CC(=O)O)NC(=O)[C@H]2CCCN2C(=O)[C@H](CCC(=O)O)NC1=O)C(C)C, also called Ac-Lys(DOTA)-Val-Tyr-[Cys(3MeBn)-Glu-pro-Asp-Trp-Leu-Thr-Trp-Ala-Cys]-NH2) [3BP-3427]
> 8 pic50	Ac-K(DOTA)VYCE[dP]DWLTWSC-NH2 (linker 4-13 via 3MeBn, also called Ac-Lys(DOTA)-Val-Tyr-[Cys(3MeBn)-Glu-pro-Asp-Trp-Leu-Thr-Trp-Ser-Cys]-NH2) [3BP-3840]
